Our source for the Kd values is patent US20180280525A1 (published 2018).

Numbered stars: 1 amine (or outer) side, 2 acyl side, 3 side chain; on linkers, the order of the positions; unused ones are H or OH. Bridge positions count the residues as written; N and C are the ends. Square brackets hold non-standard residues; d marks the D form. Ends that are not written are not given here. * marks the point of attachment. DOTA = O=C(O)CN1CCN(CC(=O)O)CCN(CC(=O)*)CCN(CC(=O)O)CC1; fluorescein = fluorescein label on the Lys side chain; Phe(4-Br) = N[C@@H](Cc1ccc(Br)cc1)C(=O)O; 1Nal = N[C@@H](Cc1cccc2ccccc12)C(=O)O; TBMB = c1c(C[*:1])cc(C[*:3])cc1C[*:2]; Tle = CC(C)(C)[C@H](N)C(=O)O; Sar = CNCC(=O)O

In experiment [1] the target is T1, human MT1-MMP hemopexin domain (human, UniProt P50281 319-511).
T1 construct: range 319-511; Secreted from HEK293 cells as soluble N-terminally His6-tagged protein; also called MT1-MMP hemopexin-like repeats; MMP14
The experiment can be described thus: FP direct binding, fluoresceinated peptide titrated with hemopexin domain.

For experiment [2], the target named is T1, human MT1-MMP hemopexin domain. The experiment is described as follows: FP competition, human MT1-MMP hemopexin domain; tracer not given.
For experiment [3] the target is unchanged. The experiment can be described thus: FP competition, tracer A-(17-69-07)-A-Sar6-K(Fluorescein).
Experiment [4] shares this target. The experiment is described as follows: FP competition, tracer A-(17-69-12)-A-Sar6-K(Fluorescein).
Experiment [5] shares this target. The experiment can be described thus: FP competition, human MT1-MMP hemopexin domain; method not given.
The target is the same in experiment [6]. The experiment can be described thus: FP competition, human MT1-MMP hemopexin domain; tracer not given. The source holds these as a separate data set.
Experiment [7] has the same target. The experiment is described as follows: FP competition, tracer A-(17-69-07)-A-Sar6-K(Fluorescein). The source holds these as a separate data set.
Experiment [8] shares this target. The experiment is described as follows: FP competition, human MT1-MMP hemopexin domain; tracer not given. The source holds these as a separate data set.
The target is the same in experiment [9]. The experiment can be described thus: FP competition, Human/cyno MT1-MMP hemopexin domain.
Experiment [10] has the same target. The experiment is described as follows: FP competition, human MT1-MMP hemopexin domain; tracer not given. The source holds these as a separate data set.
For experiment [11], the target named is T2, dog MT1-MMP hemopexin domain (dog, UniProt A0A8I3MND9 318-511).
T2 construct: domain: hemopexin domain
The experiment can be described thus: FP competition, dog MT1-MMP hemopexin domain. How it is done: Subsequently, the non-fluorescent competitor bicyclic peptide (usually just the bicycle core sequence) is titrated, such that it displaces the fluorescent tracer from the target protein. The displacement of the tracer is measured and associated with a drop in fluorescence polarisation. The drop in fluorescence polarisation is proportional to the fraction of target protein bound with the non-fluorescent titrant, and thus is a measure of the affinity of titrant to target protein.

The target of experiment [12] is T1, human MT1-MMP hemopexin domain. The experiment can be described thus: FP competition, human MT1-MMP hemopexin domain (n = 3; footnote e).

By Kd is commonly meant a measure of binding affinity in units of concentration. A higher Kd goes with a looser complex.

B1: 17-69-12-N005 (peptide)
peptide: ACMNQFGCEDFYDICA[Sar][Sar][Sar][Sar][Sar][Sar]K(fluorescein)
modifications: linker 2-8-15 via TBMB; not fully specified (C-terminus)
notes: also called A-(17-69-12)-A-Sar6-K(Fl); A-(17-69-12)-A-Sar6-K(Fluorescein)
As for B1, the Kd in experiment [1] came out at 3.1 nM.

B2: 17-69-07-N040 (peptide)
peptide: ACYNEFGCEDFYDICA[Sar][Sar][Sar][Sar][Sar][Sar]K(fluorescein)
modifications: linker 2-8-15 via TBMB; not fully specified (C-terminus)
notes: also called A-(17-69-07)-A-Sar6-K(Fl); A-(17-69-07)-A-Sar6-K(Fluorescein)
B2 registered a Kd in [1] of 0.52 nM.

B3: 17-69-07-N252 (peptide)
chain: Ac-C[dA]NE[1Nal][dA]CEDF[Phe(4-Br)]D[Tle]C
modifications: linker 1-7-14 via TBMB; not fully specified (C-terminus); printed as Ac-(17-69-07) D-Ala1 1Nal4 D-Ala5 4BrPhe9 tBuGly11
For the molecule B3, in [2], binding was characterised by a dissociation constant (Kd) of 0.8 nM. In other words, the sub-nanomolar range.

B4: 17-69-N004 (peptide)
peptide: ACKNRGFGCEDFYDICA[Sar][Sar][Sar][Sar][Sar][Sar]K(fluorescein)
modifications: linker 2-9-16 via TBMB; not fully specified (C-terminus)
notes: also called A-(17-69)-A-Sar6-K(Fl); A-(17-69)-A-Sar6-K(Fluorescein)
As for B4, the Kd in [1] is 692 nM.

ACVNEFGCEDFYDICA (linker 2-8-15 via TBMB; not fully specified (C-terminus), also called A-(17-69-03)-A) [17-69-03-N001] came in with a Kd in experiment [3] of 16.7 nM.

Molecule ACYNEFGCEDFYDICA (linker 2-8-15 via TBMB; not fully specified (C-terminus), also called A-(17-69-07)-A) [17-69-07-N001] came in with a Kd in [4] of 1.65 nM.

B5: 17-69-07-N147 (peptide)
peptide: {DOTA}-ACYNEFGCEDFYDIC
modifications: linker 2-8-15 via TBMB; not fully specified (C-terminus); also: DOTA loaded with cold 175Lu
notes: also called DOTA[Lu]-A-(17-69-07)
B5 came in with a Kd in experiment [5] of 0.95 nM.

In the case of Ac-CYNEYGCEDFYDIC (linker 1-7-14 via TBMB; not fully specified (C-terminus), also called Ac-(17-69-07) Tyr4) [17-69-07-N057], the Kd in experiment [6] was found to be 1.78 nM.

As for Ac-CYNEWGCEDFYDIC (linker 1-7-14 via TBMB; not fully specified (C-terminus), also called Ac-(17-69-07) Trp4) [17-69-44-N002], in [6], binding was put at a Kd of 0.75 nM.

B6: 17-69-07-N248 (peptide)
chain: {DOTA}-AC[dA]NE[1Nal][dA]CEDF[Phe(4-Br)]D[Tle]C
modifications: linker 2-8-15 via TBMB; not fully specified (C-terminus); also: 177Lu chelated in DOTA for biodistribution study
The molecule B6 registered a Kd in [5] of 0.5 nM. That is a sub-nanomolar value.

ACFGEFGCEDFYDICA (linker 2-8-15 via TBMB; not fully specified (C-terminus), also called A-(17-69-02)-A) [17-69-02-N001] registered a Kd in [3] of 191 nM. This lies in the sub-micromolar range.

Regarding ACMNQFGCEDFYDICA (linker 2-8-15 via TBMB; not fully specified (C-terminus), also called A-(17-69-12)-A) [17-69-12-N003], the Kd in experiment [7] is 3.7 nM.

In the case of Ac-CYNEF[dR]CEDFYDIC (linker 1-7-14 via TBMB; not fully specified (C-terminus)) [17-69-07-N120], in experiment [8], the Kd stood at 4.24 nM.

B7: 17-69-07-N144 (peptide)
peptide: {DOTA}-ACYNEFGCEDFYDIC
modifications: linker 2-8-15 via TBMB; not fully specified (C-terminus); also: DOTA loaded with 177Lu
notes: Loaded with 177Lu for the biodistribution study; also called DOTA-A-(17-69-07)
In [5], B7 had a Kd of 0.5 nM. That is a sub-nanomolar value.

B8: 17-69-07-N219 (peptide)
peptide: GXACYNEFGCEDFYDIC
modifications: not fully specified; Sar x10 in the spacer; 3 Cys cyclised with TBMB
notes: also called G-Sar10-A-(17-69-07) (non-stabilised with spacer)
With B8, the Kd in [9] was found to be 0.82 nM; in experiment [10], 0.82 nM; in experiment [11], 0.9 nM; in experiment [12], 0.82 nM.
